Measured values as given in patent KR20220167207A.

How the values were obtained:
[1] = biological target: CADM1 on small cell lung cancer cell lines H146 and H69 (human) (UniProt Q9BY67); assay: flow cytometry, PE anti-HA antibody alone (control) on H69 cells
[2] = biological target: CADM1 peptide expressed on SBC-5 small cell lung cancer cells (CADM1-SBC-5; peptide - transmembrane domain - GFP) (human); assay: flow cytometry, PE anti-HA antibody alone (control) on SBC-5 cells expressing the CADM1 peptide
[3] = biological target: T1, CADM1 peptide structure expressed on cells (CADM1 peptide, Myc tag, hinge, transmembrane domain, GFP) (human); assay: flow cytometry, PE anti-HA antibody alone (control) on cells with the CADM1 peptide structure
T1 sequence: DSRAGEEGSIRAVDH

[4] = biological target: CADM1 on small cell lung cancer cell lines H146 and H69 (human) (UniProt Q9BY67); assay: flow cytometry, PE anti-HA antibody alone (control) on H146 cells
[5] = biological target: comparison structure: the same structure without the CADM1 peptide (Myc tag, hinge, transmembrane domain, GFP) on cells; assay: flow cytometry, PE anti-HA antibody alone (control) on cells with the structure without the peptide

결합력 % [1]: 2.2%
결합력 % [2]: 0.3%
결합력 % [3]: 0%
결합력 % [4]: 2.1%
결합력 % [5]: 0.1%
Substance: PE-conjugated HA antibody (16B12 clone, Biolegend, Cat No. 901518)
